Substrate: Nc1nc2c(ncn2[C@@H]2O[C@H](COP(=O)(O)OP(=O)(O)OP(=O)(O)O)[C@@H](O)[C@H]2O)c(=O)[nH]1
Assay: purified protein
Format: biochemical, Homo sapiens
Details: 12 μM GTPBP8, 0-3 mM GTP, kit reaction buffer, 25 °C, intrinsic GTPase activity

B1: GTPBP8 (GTP-binding protein 8) (Homo sapiens) (protein)
chain: MAAPGLRLGAGRLFEMPAVLERLSRYNSTSQAFAEVLRLPKQQLRKLLYPLQEVERFLAPYGRQDLHLRIFDPSPEDIARADNIFTATERNRIDYVSSAVRIDHAPDLPRPEVCFIGRSNVGKSSLIKALFSLAPEVEVRVSKKPGHTKKMNFFKVGKHFTVVDMPGYGFRAPEDFVDMVETYLKERRNLKRTFLLVDSVVGIQKTDNIAIEMCEEFALPYVIVLTKIDKSSKGHLLKQVLQIQKFVNMKTQGCFPQLFPVSAVTFSGIHLLRCFIASVTGSLD
notes: His-tagged, purified; full-length human CDS in pENTR221, GTPBP8 cloned into pHAT (and pGAT2); full-length 284 residues
Work on B1 yielded a Km of 200 ± 40 µM and a kcat of 0.000132 ± 5.5e-05 s⁻¹.
